The values below come from patent publication US7777010 (CRUCELL HOLLAND B V, dated 2010).

Positions count from the first letter of the chain named.

For assay [1], the target named is T1, purified recombinant Ep-CAM produced in insect cells (UniProt P16422 24-265, limits assumed).
T1 construct: Coupled to a CM5 sensor chip by NHS/EDC; Neither the species nor the construct limits are stated at this place
T1 sequence (looked up): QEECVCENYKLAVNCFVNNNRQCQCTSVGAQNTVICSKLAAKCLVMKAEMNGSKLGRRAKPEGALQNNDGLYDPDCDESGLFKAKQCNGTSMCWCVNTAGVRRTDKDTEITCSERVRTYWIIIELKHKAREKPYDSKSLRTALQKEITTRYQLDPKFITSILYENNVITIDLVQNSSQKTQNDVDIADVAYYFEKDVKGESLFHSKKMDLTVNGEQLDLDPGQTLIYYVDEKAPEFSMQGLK
As to the kind of experiment: SPR (BIAcore), recombinant Ep-CAM coupled to CM5 chip, IgG1 in flow. On the procedure:
(§1) In separate BIAcore flow cells, approximately 160, 1565 and 4154 resonance units of purified recombinant Ep-CAM produced in insect cells (kindly provided by Dr. D. Herlyn, Wistar institute, Philadelphia, Pa.) (25 µg/ml) in 10 mM acetate buffer (pH 4.0) were coupled to a CM5 sensor chip using NHS/EDC coupling chemistry. Association and dissociation were measured under continuous flow of […] using a concentration range from 100 to 1 nM.
(§2) The kinetic association and dissociation rates of the original huMab UBS-54 and the mutant huMabs A37 and C52 were determined by surface plasmon resonance (Table 1). […] The improvement was mainly the result of a lower […].

The target in assay [2] is T1, purified recombinant Ep-CAM produced in …. Nature of the assay: SPR (BIAcore), recombinant Ep-CAM coupled to CM5 chip. As for the experimental part: as §1, §2

B1: huMab UBS-54 (antibody, V domains shown)
VH: QVQLVQSGAEVKKPGSSVRVSCKASGGTFSSYAISWVRQAPGQGLEWMGGIIPIFGTANYAQKFQGRVTITADESTSTAYMELSSLRSEDTAVYYCARDPFLHYWGQGTLVT
VL: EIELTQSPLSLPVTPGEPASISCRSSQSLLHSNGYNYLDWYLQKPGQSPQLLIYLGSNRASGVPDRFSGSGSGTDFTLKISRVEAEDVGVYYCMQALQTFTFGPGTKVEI
notes: Tested as an intact human IgG1/kappa huMab made in BHK cells (VH1 / Vk2 V regions); FITC-labelled in the spheroid experiment; also called original huMab UBS-54; original UBS-54
On to B1, for which, in assay [1], the Kd was determined as 6 nM, the koff was 0.0006 s⁻¹ and the kon is 100000 M⁻¹ s⁻¹.

B2: huMab A37 (antibody, V domains shown)
VH: B1 VH
VL: EIELTQSPGTLSLSPGERATLSCRASQTISNNYLAWYQQKRGQAPRLLIYAASSRATGIPDRFSGTGSGTDFTLTISRLEPEDFAVYYCAQGELYPRQFGGGTKLEI
notes: Tested as an intact human IgG1/kappa huMab made in BHK cells; It has the UBS-54 VH with a shuffled Vk3 light chain; also called mutant A37
On to B2, for which, in assay [1], the dissociation constant Kd stood at 1.6 nM, the koff came out at 0.00041 s⁻¹ and the on-rate constant (kon) came to 250000 M⁻¹ s⁻¹. Moreover, in assay [2], the “fold increase in affinity against the original huMab UBS-54” value is ~4 fold.

B3: huMab C52 (antibody, V domains shown)
VH: B1 VH with S16A, R19K, I52V
VL: B2 VL with T28S, I29V, N31S, N32S, R41P, A51G, T66S, E106D
notes: Tested as an intact human IgG1/kappa huMab made in BHK cells; It has the B43 VH with a DNA-shuffled A37-derived Vk light chain; FITC-labelled in the spheroid experiment; also called mutant C52
As for B3, in assay [1], the dissociation constant Kd was determined as 0.4 nM, the koff came to 0.00011 s⁻¹ and the on-rate constant (kon) was found to be 270000 M⁻¹ s⁻¹. For the same molecule, in assay [2], the “fold improvement of binding affinity against the original UBS-54 huMab” value stood at 15 fold.
